Results as given in US20130123349A1.

Key:
[1] = molecular target: collagen-related peptide (GPO)10, GCO-(GPO)10-GCOG-NH2, cross-linked; assay: SPR, Aegyptin over immobilized cross-linked (GPO)10 peptide, two-state model; Ka1
[2] = molecular target: collagen-related peptide (GPO)10, GCO-(GPO)10-GCOG-NH2, cross-linked; assay: SPR, Aegyptin over immobilized cross-linked (GPO)10 peptide, two-state model; Kd1
[3] = molecular target: collagen-related peptide (GPO)10, GCO-(GPO)10-GCOG-NH2, cross-linked; assay: SPR, Aegyptin over immobilized cross-linked (GPO)10 peptide, two-state model
[4] = molecular target: collagen-related peptide (GPO)10, GCO-(GPO)10-GCOG-NH2, cross-linked; assay: SPR, Aegyptin over immobilized cross-linked (GPO)10, two-state model (text value; Table 4 prints 5.101 µM)
[5] = molecular target: soluble collagen type III (pepsin-digested, non-fibrillar; BD Biosciences) (human) (UniProt P02461); assay: SPR, saliva injected over immobilized collagen type III for 120 sec at 20 µl/min
soluble collagen type III (pepsin-digested, non-fibrillar; BD Biosciences) (human), sequence (P02461 168-1196): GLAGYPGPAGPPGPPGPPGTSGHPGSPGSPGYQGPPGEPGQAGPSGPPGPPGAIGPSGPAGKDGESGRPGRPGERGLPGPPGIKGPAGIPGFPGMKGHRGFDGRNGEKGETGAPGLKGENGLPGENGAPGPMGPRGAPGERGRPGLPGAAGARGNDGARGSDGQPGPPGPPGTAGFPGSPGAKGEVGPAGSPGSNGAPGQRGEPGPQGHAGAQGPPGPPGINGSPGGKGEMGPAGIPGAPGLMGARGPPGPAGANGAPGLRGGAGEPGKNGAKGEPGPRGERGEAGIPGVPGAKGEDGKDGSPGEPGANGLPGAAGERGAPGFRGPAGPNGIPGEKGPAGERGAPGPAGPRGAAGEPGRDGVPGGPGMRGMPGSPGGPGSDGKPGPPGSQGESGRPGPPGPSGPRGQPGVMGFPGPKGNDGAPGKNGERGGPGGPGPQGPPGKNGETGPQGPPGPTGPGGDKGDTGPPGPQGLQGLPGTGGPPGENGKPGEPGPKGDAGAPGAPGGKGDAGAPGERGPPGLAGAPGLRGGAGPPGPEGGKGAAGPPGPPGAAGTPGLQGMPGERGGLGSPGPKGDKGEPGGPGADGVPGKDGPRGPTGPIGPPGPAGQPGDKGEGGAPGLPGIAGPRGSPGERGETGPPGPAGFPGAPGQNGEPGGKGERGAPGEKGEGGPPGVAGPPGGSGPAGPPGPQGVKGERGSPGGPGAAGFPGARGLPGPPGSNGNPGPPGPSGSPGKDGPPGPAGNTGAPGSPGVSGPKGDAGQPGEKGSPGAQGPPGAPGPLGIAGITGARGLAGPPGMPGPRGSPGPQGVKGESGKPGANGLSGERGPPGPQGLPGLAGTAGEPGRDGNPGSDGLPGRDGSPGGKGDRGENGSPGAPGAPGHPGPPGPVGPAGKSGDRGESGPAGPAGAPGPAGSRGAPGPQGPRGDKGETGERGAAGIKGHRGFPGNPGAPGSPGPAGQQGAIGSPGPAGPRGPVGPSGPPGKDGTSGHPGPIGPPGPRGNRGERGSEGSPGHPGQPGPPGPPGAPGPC

[6] = molecular target: soluble collagen type I (pepsin-digested, non-fibrillar, triple helical; BD Biosciences) (human) (UniProt P02452); assay: SPR, saliva injected over immobilized collagen type I for 120 sec at 20 µl/min
soluble collagen type I (pepsin-digested, non-fibrillar, triple helical; BD Biosciences) (human), sequence (P02452 179-1192 limits assumed, chain 1 of 2): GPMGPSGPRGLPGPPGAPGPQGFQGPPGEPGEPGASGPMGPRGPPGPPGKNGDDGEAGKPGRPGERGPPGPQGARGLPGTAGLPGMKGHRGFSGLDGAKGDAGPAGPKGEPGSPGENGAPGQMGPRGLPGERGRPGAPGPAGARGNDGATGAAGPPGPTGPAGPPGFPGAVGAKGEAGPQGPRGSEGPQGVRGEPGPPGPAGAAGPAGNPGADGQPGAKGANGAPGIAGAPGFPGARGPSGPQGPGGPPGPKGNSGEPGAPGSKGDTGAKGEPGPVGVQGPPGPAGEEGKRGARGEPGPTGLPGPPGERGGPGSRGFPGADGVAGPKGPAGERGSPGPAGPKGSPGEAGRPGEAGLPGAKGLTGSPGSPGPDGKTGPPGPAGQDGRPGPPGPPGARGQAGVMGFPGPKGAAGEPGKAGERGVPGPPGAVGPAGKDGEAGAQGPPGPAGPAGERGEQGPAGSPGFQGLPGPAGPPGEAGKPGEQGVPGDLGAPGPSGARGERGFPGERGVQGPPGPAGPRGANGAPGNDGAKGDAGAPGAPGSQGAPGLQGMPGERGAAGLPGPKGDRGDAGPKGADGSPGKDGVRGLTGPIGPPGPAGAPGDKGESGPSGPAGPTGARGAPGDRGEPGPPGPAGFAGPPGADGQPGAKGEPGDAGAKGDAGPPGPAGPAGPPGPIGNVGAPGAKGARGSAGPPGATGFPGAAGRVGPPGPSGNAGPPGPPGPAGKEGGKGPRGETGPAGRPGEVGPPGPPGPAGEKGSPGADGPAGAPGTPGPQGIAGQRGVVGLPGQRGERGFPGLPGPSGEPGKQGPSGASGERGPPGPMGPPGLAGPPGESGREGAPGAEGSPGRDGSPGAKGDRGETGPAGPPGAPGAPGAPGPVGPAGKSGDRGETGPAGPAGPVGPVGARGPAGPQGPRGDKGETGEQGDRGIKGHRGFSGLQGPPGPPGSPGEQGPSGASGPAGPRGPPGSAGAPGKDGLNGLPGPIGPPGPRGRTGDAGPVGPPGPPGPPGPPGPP
soluble collagen type I (pepsin-digested, non-fibrillar, triple helical; BD Biosciences) (human), sequence (P08123 91-1104 limits assumed, chain 2 of 2, further chain): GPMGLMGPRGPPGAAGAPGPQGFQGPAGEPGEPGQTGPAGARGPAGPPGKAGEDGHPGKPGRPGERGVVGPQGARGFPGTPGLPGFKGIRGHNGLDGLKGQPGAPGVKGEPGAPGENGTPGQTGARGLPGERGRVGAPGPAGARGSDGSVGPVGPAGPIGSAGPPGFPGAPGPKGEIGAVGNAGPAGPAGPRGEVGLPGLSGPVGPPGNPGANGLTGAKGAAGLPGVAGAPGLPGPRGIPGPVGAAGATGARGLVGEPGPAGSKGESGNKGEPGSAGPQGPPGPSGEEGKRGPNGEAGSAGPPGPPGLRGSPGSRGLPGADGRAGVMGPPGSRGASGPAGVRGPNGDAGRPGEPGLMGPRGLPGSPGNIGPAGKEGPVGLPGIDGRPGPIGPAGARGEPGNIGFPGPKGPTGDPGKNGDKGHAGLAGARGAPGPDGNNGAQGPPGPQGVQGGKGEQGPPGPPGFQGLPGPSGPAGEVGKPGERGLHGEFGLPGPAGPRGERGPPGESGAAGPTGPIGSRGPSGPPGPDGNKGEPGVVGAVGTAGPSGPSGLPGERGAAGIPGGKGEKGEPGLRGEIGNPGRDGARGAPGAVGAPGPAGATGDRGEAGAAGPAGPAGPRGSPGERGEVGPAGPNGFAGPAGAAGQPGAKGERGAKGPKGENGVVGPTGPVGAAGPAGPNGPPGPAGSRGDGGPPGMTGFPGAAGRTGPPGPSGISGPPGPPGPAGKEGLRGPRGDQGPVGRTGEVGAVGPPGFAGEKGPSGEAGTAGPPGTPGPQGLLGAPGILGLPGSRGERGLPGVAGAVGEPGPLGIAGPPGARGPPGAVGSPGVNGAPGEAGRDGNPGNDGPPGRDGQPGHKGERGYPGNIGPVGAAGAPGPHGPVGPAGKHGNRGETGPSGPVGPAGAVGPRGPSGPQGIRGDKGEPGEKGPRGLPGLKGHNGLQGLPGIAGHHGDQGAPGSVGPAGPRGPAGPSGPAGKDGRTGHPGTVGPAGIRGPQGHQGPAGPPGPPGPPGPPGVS

Row | Substance | kon [1] [M⁻¹ s⁻¹] | koff [2] [s⁻¹] | Kd [3] [µM] | Kd2 (two-state model) [3] [s⁻¹] | second Ka of the two-state model [3] [M⁻¹ s⁻¹] | Kd [4] [µM] | Response (RU) [5] [RU] | Response (RU) [6] [RU]
1 | recombinant Aegyptin (from UniProt O01949 20-273) | 206000 | 1.19 | 5.1 | 0.0289 | 0.00402 | 5.01 |  | 
2 | Ae. aegypti saliva (0.07 µg/ml) |  |  |  |  |  |  | 348 | 556
